The source of these data is publication PMC8136917, “The glycosyltransferase UGT76B1 modulates N-hydroxy-pipecolic acid homeostasis and plant immunity” (The Plant Cell, 2021).

Substrate in data set [1]: O=C(O)[C@@H]1CCCCN1O
Nature of the data set: UPLC-nanoESI-QTRAP-MS of product NHP-OGlc; Hill regression. The format is biochemical, Arabidopsis thaliana. The following applies: UDP-glucose co-substrate (2 mM in methods); 5 min at 25°C (Figure 6 legend; methods say 15 min at 30°C).

Substrate in data set [2]: O=C(O)c1ccccc1O
Nature of the data set: UPLC-nanoESI-QTRAP-MS of product SAG; Hill regression. In kind it is biochemical, Arabidopsis thaliana. The conditions noted are these: UDP-glucose co-substrate (2 mM in methods); 5 min at 25°C (Figure 6 legend; methods say 15 min at 30°C).

B1: UGT76B1 (Arabidopsis thaliana) (protein)
chain: METRETKPVIFLFPFPLQGHLNPMFQLANIFFNRGFSITVIHTEFNSPNSSNFPHFTFVSIPDSLSEPESYPDVIEILHDLNSKCVAPFGDCLKKLISEEPTAACVIVDALWYFTHDLTEKFNFPRIVLRTVNLSAFVAFSKFHVLREKGYLSLQETKADSPVPELPYLRMKDLPWFQTEDPRSGDKLQIGVMKSLKSSSGIIFNAIEDLETDQLDEARIEFPVPLFCIGPFHRYVSASSSSLLAHDMTCLSWLDKQATNSVIYASLGSIASIDESEFLEIAWGLRNSNQPFLWVVRPGLIHGKEWIEILPKGFIENLEGRGKIVKWAPQPEVLAHRATGGFLTHCGWNSTLEGICEAIPMICRPSFGDQRVNARYINDVWKIGLHLENKVERLVIENAVRTLMTSSEGEEIRKRIMPMKETVEQCLKLGGSSFRNLENLIAYILSF
Turning to B1, the values for the Michaelis-Menten constant (Km) in data set [1] and in data set [2] were 191 ± 14 µM and 75 ± 2 µM, respectively.
